What follows are substances tested against 53BP1 fragment (a.a. 1221-1718) fused to an adenylate cyclase fragment (two-hybrid) (UniProt Q12888) (assay: cell-based or functional assay).

Substance | Experiment 1 Average Enrichment [log2] | Experiment 1 Rep 1 Enrichment [log2] | Experiment 1 Rep 2 Enrichment [log2] | Experiment 2 Average Enrichment [log2] | Experiment 2 Rep 1 Enrichment [log2] | Experiment 2 Rep 2 Enrichment [log2]
i53 + K33C two-hybrid fusion (designed binder) | 1.96 | 2.85 | 1.07 | 0.77 | 0.55 | 0.99
i53 + K33E two-hybrid fusion (designed binder) | 2.71 | 2.38 | 3.03 | 1.27 | 1.48 | 1.05
i53 + Q31R two-hybrid fusion (designed binder) | 0.15 | 0.66 | -0.37 | -0.22 | 0.14 | -0.58
i53 + S57E two-hybrid fusion (designed binder) | 0.45 | 0.28 | 0.62 | 0.35 | 0.42 | 0.28
i53 + K48M two-hybrid fusion (designed binder) | 0.91 | 0.87 | 0.94 | 0.67 | 0.63 | 0.7
i53 + Q40E two-hybrid fusion (designed binder) | 1.37 | 1.67 | 1.08 | 1.18 | 1.84 | 0.52
i53 + P38F two-hybrid fusion (designed binder) | 0.67 | 0.91 | 0.43 | 0.81 | 0.48 | 1.13
i53 + T7L two-hybrid fusion (designed binder) | 0.61 | 0.62 | 0.61 | -0.19 | -0.07 | -0.31
i53 + N25K two-hybrid fusion (designed binder) | 0.32 | 0.11 | 0.54 | 0.21 | 0.17 | 0.24
i53 + K48V two-hybrid fusion (designed binder) | 0.54 | 0.59 | 0.48 | 0.34 | 0.23 | 0.46
i53 + S49I two-hybrid fusion (designed binder) | 0.3 | 0.04 | 0.56 | 0.17 | 0.6 | -0.26
i53 + K29R two-hybrid fusion (designed binder) | -0.01 | -0.07 | 0.05 | 0.28 | 0.45 | 0.1
i53 + E16Y two-hybrid fusion (designed binder) | 0.35 | 0.23 | 0.47 | -0.22 | -0.32 | -0.11
i53 + E16H two-hybrid fusion (designed binder) | 0.03 | 0 | 0.05 | -0.13 | -0.21 | -0.05
i53 + S65D two-hybrid fusion (designed binder) | 0.36 | 0.02 | 0.7 | 0.85 | 0.61 | 1.1
i53 + S20D two-hybrid fusion (designed binder) | -0.43 | -0.14 | -0.72 | 0.5 | 0.83 | 0.18
i53 + T14N two-hybrid fusion (designed binder) | 2.76 | 2.84 | 2.69 | 1.44 | 1.5 | 1.37
i53 + S20W two-hybrid fusion (designed binder) | -0.36 | -0.97 | 0.25 | 0.17 | 0.1 | 0.24

Source: patent US20230135471A1, “UBIQUITIN VARIANTS WITH IMPROVED AFFINITY FOR 53BP1” (Integrated DNA Technologies, Inc., priority 2021, published 2023)
